Where a chain is given by its changes, count along the chain named. In names and notes the source's numbering stands.
B1: murine 312B-IgG4 (scFv of the mature 312B VH and VL fused to human IgG4 Fc) (Fc fusion, mouse)
VH: QVKLQESGAELMKPGSSVKFSCKAAGYTFTDYWIEWLKQRPGHGLEWIGEILPGSVSIKYNEKFKGKATFTADTSSNTAYMQLSSLTSEDSAVYYCARSRSIYDGYFYYWGQGTTLTVSS
VL: DIVMTQSTASLSASVGETVTITCRASENIYTYLAWYQQKQGKSPQLLVYNAKTLAEGVPSRFSGSGSGTQFSLRINSLQPEDFGSYYCQHHYGTPYTFGGGTKLEIK
notes: flexible linker of three G4S motifs; VH-VL orientation; N-terminal murine Ig kappa leader for secretion; also called mature ab; source: permanent 3T3 production cell line, purified from cell culture supernatant (protein A); not shown: Fc (human IgG4, CH2 and CH3), C-terminal, kept
B2: mutated germline 312B-IgG4 with an aspartate to tyrosine mutation in the CDR3 region of the VH domain (Fc fusion, mouse)
VH: QVQLQQSGAELMKPGASVKLSCKATGYTFTGYWIEWVKQRPGHGLEWIGEILPGSGSTNYNEKFKGKATFTADTSSNTAYMQLSSLTTEDSAIYYCARSRSIYDGYFYYWGQGTTLTVSS
VL: B1 VL with V3Q, T8P, T31S, R74K
notes: as the germline VH of m6 with the aspartate in CDR3 replaced by tyrosine; flexible linker of three G4S motifs; as the germline VL of m6; VH-VL orientation; N-terminal murine Ig kappa leader for secretion; also called gl312B-D > Y; source: permanent 3T3 production cell line, purified from cell culture supernatant (protein A); not shown: Fc (human IgG4, CH2 and CH3), C-terminal, kept

Assays:
[1] = molecular target: T1, native human La protein of HeLa total cell extract (Homo sapiens (HeLa, endogenous), UniProt P05455); experiment: co-IP; HeLa total extract (50 nM Tris/HCl pH 8.0, 150 mM NaCl, 1% IGEPAL CA-630) mixed with 2 µg purified ab and Protein G MicroBeads, on ice 30 min; La detected by blot with anti-La mab 5B9; conditions: one partner purified
T1 construct: La protein (La/SS-B), human, endogenous in HeLa cells; also called native La protein; source: endogenous, HeLa total extract
T1 sequence (P05455 whole entry): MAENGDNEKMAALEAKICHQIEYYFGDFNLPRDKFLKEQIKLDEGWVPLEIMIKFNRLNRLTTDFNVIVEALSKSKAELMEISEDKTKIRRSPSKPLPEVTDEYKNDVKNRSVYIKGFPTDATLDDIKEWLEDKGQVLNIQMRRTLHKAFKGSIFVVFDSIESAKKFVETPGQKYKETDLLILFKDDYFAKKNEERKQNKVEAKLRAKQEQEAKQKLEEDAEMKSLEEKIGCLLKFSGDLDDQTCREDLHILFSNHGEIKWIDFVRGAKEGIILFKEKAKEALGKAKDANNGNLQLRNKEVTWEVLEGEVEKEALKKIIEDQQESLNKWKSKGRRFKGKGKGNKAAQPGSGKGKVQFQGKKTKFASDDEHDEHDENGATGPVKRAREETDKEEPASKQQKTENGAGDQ

[2] = molecular target: T2, recombinant human La protein (Homo sapiens, UniProt P05455); experiment: far-Western, overlay or dot blot; SDS-PAGE/immunoblotting under denaturing conditions: 2 µg rh-La or TCM-La on nitrocellulose, IgG4 ab constructs at 1.5 µg/mL in Blocking Solution, detected with anti-human IgG4-HRP; conditions: both partners purified
T2 construct: La protein (La/SS-B, Sjögren's syndrome associated antigen B), human; It calls wildtype La an undefined mixture of oxidized and reduced protein; also called rh-La; wildtype La protein; source: bacteria lysates, purified (Ni-NTA)
T2 sequence (P05455 whole entry): as above

Binder | binding result [1] | binding result [2]
B1 | binds | binds
B2 | binds | binds

— PMC8584381, “A Small Step, a Giant Leap: Somatic Hypermutation of a Single Amino Acid Leads to Anti-La Autoreactivity” (International Journal of Molecular Sciences, 2021)
